Laboratory results from patent US20120093813A1.

Legend:
[1] = molecular target: huN1-NRRHD Mutant 1457E/A (human) (UniProt P46531); assay: ELISA, relative to huN1-NRRHD
[2] = molecular target: huN1-NRRHD Mutant 1466L/A (human) (UniProt P46531); assay: ELISA, relative to huN1-NRRHD
[3] = molecular target: huN1-NRRHD Mutant 1463V/A (human) (UniProt P46531); assay: ELISA, relative to huN1-NRRHD
[4] = molecular target: huN1-NRRHD Mutant 1467Q/A (human) (UniProt P46531); assay: ELISA, relative to huN1-NRRHD
[5] = molecular target: huN1-NRRHD Mutant 1462K/A (human) (UniProt P46531); assay: ELISA, relative to huN1-NRRHD
[6] = molecular target: huN1-NRRHD Mutant 1465S/N (human) (UniProt P46531); assay: ELISA, relative to huN1-NRRHD
[7] = molecular target: Notch1 chimeric antigen, Lin-A domain swapped with murine sequence (human; human with mouse Lin-A) (UniProt P46531); assay: ELISA, relative to huN1-NRRHD
[8] = molecular target: huN1-NRRHD chimeric antigen, HD-C Subdomain swap 3 (to Notch2 sequence) (human; human with Notch2 residues) (UniProt P46531); assay: ELISA on coated conditioned medium
[9] = molecular target: huN1-NRRHD chimeric antigen, HD-C Subdomain swap 1 (to Notch2 sequence) (human; human with Notch2 residues) (UniProt P46531); assay: ELISA on coated conditioned medium
[10] = molecular target: huN1-NRRHD chimeric antigen, HD-C Subdomain swap 5 (to Notch2 sequence) (human; human with Notch2 residues) (UniProt P46531); assay: ELISA on coated conditioned medium
[11] = molecular target: huN1-NRRHD chimeric antigen, HD-C Subdomain swap 4 (to Notch2 sequence) (human; human with Notch2 residues) (UniProt P46531); assay: ELISA on coated conditioned medium
[12] = molecular target: huN1-NRRHD chimeric antigen, HD-C Subdomain swap 2 (to Notch2 sequence) (human; human with Notch2 residues) (UniProt P46531); assay: ELISA on coated conditioned medium
[13] = molecular target: Notch1 chimeric antigen, Lin-A domain swapped with murine sequence (human; human with mouse Lin-A) (UniProt P46531); assay: ELISA on coated conditioned medium

Binding activity [1]: 112%
Binding activity [2]: 1%
Binding activity [3]: 6%
Binding activity [4]: 4%
Binding activity [5]: 85%
Binding activity [6]: 8%
Binding activity [7]: 11%
ELISA reading (Binding activity) [8]: 2.81
ELISA reading (Binding activity) [9]: 0.48
ELISA reading (Binding activity) [10]: 1.48
ELISA reading (Binding activity) [11]: 2.89
ELISA reading (Binding activity) [12]: 2.76
ELISA reading [13]: 0.33
B1: mouse monoclonal antibody N248A (antibody, IgG1, V domains shown)
VH: QVQLQQSGAELMKPGASVKISCKATGYTFSNYWMEWVKQRPGHGLEWIGEILPGRGRTNYNENFKGKATFTADTSSNTVYMQLNSLTSEDSAVYYCARFHSSAYYYTMDYWGQRTSVTVSS
VL: QAVVTQESALTTSPGETVTLTCRSSTGAVTTSNYANWVQEKPDHLFTGLIGGTNNRAPGIPARFSGSLIGDKAALTITGAQTEDEAIYFCALWYSNHWVFGGGTKLTVL
